Source: patent publication US20230105457A1, “Immunogenic Compounds For Treatment Of Adrenal Cancer” (ENTEROME S.A., priority 2019, published 2023)
Like-named read-outs stand apart in the source and are kept apart here.

Assays:
[1] = biological target: T1, HLA-A*0201 molecule expressed on human tumor cell line T2 (human); assay: T2 cell HLA-A2 stabilisation, FACS; peptide at 6.25 µM
T1 construct: surface HLA-A2 read with anti-HLA-A2 antibody BB7.2-PE by FACS; also called HLA-A2

[2] = biological target: T1, HLA-A*0201 molecule expressed on human …; assay: T2 cell HLA-A2 stabilisation, FACS; peptide at 25 µM
[3] = biological target: T1, HLA-A*0201 molecule expressed on human …; assay: T2 cell HLA-A2 stabilisation, FACS; peptide at 100 µM
[4] = biological target: T1, HLA-A*0201 molecule expressed on human …; assay: T2 cell HLA-A2 stabilisation, FACS; peptide at 50 µM
[5] = biological target: T1, HLA-A*0201 molecule expressed on human …; assay: T2 cell HLA-A2 stabilisation, FACS; peptide at 3.125 µM
[6] = biological target: T1, HLA-A*0201 molecule expressed on human …; assay: T2 cell HLA-A2 stabilisation, FACS; ratio of 20% concentration to that of HIV pol 589-597 (lower = stronger)
[7] = biological target: T1, HLA-A*0201 molecule expressed on human …; assay: T2 cell HLA-A2 stabilisation, FACS; 20% of signal of HIV pol 589-597 at 100 µM
[8] = biological target: T1, HLA-A*0201 molecule expressed on human …; assay: T2 cell HLA-A2 stabilisation, FACS; peptide at 1.5625 µM
[9] = biological target: T1, HLA-A*0201 molecule expressed on human …; assay: T2 cell HLA-A2 stabilisation, FACS; ratio of 20% concentration to that of HIV pol 589-597 (lower = stronger); remark: listed apart in the source
[10] = biological target: T1, HLA-A*0201 molecule expressed on human …; assay: T2 cell HLA-A2 stabilisation, FACS; 20% of signal of HIV pol 589-597 at 100 µM; remark: listed apart in the source

Binder | mean relative fluorescence intensity [1] | mean relative fluorescence intensity [2] | mean relative fluorescence intensity [3] | mean relative fluorescence intensity [4] | mean relative fluorescence intensity [5] | In vitro binding affinity (relative affinity) [6] | Concentration of peptide that induces 20% of HLA-A2 expression [7] | mean relative fluorescence intensity [8] | In vitro binding affinity (relative affinity) [9] | Concentration of peptide that induces 20% of HLA-A2 expression [10]
YTLGEFLYI [BIRC5-B2] | 9 relative (HIV peptide = 100) | 29.6 relative (HIV peptide = 100) | 58 relative (HIV peptide = 100) | 54.4 relative (HIV peptide = 100) | 6.6 relative (HIV peptide = 100) | 4.5 | 14.7 µM | – | – | –
GLLGEFLQI [BIRC5-B3] | – | 20.9 relative (HIV peptide = 100) | 35 relative (HIV peptide = 100) | 29.8 relative (HIV peptide = 100) | 8.9 relative (HIV peptide = 100) | 7 | 22.9 µM | 9.4 relative (HIV peptide = 100) | – | –
RVSSYLVPI [FOXM1-H] | 0 relative (HIV peptide = 100) | 10.5 relative (HIV peptide = 100) | 83.8 relative (HIV peptide = 100) | 30.7 relative (HIV peptide = 100) | 0 relative (HIV peptide = 100) | 3.7 | 37.6 µM | 0 relative (HIV peptide = 100) | – | –
RLSSYLVEI [FOXM1-B] | 0 relative (HIV peptide = 100) | 7.6 relative (HIV peptide = 100) | 47.5 relative (HIV peptide = 100) | 21.3 relative (HIV peptide = 100) | 0 relative (HIV peptide = 100) | 4.6 | 46.7 µM | 0 relative (HIV peptide = 100) | – | –
LMDLSTTPL [FOXM1-H2] | 19.7 relative (HIV peptide = 100) | 65.4 relative (HIV peptide = 100) | 77.6 relative (HIV peptide = 100) | 62.5 relative (HIV peptide = 100) | 0.9 relative (HIV peptide = 100) | 2.5 | 12.6 µM | 5.3 relative (HIV peptide = 100) | – | –
LMDLSTTEV [FOXM1-B2] | 33.5 relative (HIV peptide = 100) | 98.2 relative (HIV peptide = 100) | 105 relative (HIV peptide = 100) | 91.5 relative (HIV peptide = 100) | 12.7 relative (HIV peptide = 100) | 1.3 | 6.7 µM | 7.2 relative (HIV peptide = 100) | – | –
FMPFGFILV [IL13RA2-B2 (SEQ ID NO: 64, Example 13)] | – | – | – | – | – | – | – | – | 5.97 | 4.5 µM
YMPFGFILV [IL13RA2-B4] | – | – | – | – | – | – | – | – | 5.24 | 4.5 µM
YLPFGFILV [IL13RA2-B5] | – | – | – | – | – | – | – | – | 1.76 | 1.5 µM
WLPFGFILI [IL13RA2-H] | 9.6 relative (HIV peptide = 100) | 11.2 relative (HIV peptide = 100) | 26.5 relative (HIV peptide = 100) | 14.2 relative (HIV peptide = 100) | 3.7 relative (HIV peptide = 100) | – | – | 3 relative (HIV peptide = 100) | 78.8 | 62.3 µM
FMPFGFILGV [IL13RA2-B3] | – | – | – | – | – | – | – | – | 4.39 | 3.3 µM
FMPFGFILPI [IL13RA2-B6] | – | – | – | – | – | – | – | – | 6.86 | 5.9 µM
